T1: TGFβ2 (R&D Systems)
T1 construct: also called TGFB2
T1 sequence (P61812 303-414, species assumed, looked up): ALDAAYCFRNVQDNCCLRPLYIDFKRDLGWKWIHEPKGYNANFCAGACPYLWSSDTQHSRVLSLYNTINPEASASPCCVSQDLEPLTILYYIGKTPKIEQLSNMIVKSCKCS

T2: TGFβ3 (R&D Systems) (Homo sapiens (Human), UniProt P10600 301-412, Active TGFβ3 is a disulfide-linked homodimer of this chain; one copy is given.)
T2 construct: also called TGFB3
T2 sequence: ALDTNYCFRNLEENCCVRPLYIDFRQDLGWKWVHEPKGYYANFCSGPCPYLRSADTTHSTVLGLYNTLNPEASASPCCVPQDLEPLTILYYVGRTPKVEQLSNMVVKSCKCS


Experiments:
TGFβ1 (R&D Systems) [1] = target: T3, TGFβ1 (R&D Systems); assay: SPR full titration
T3 construct: also called TGFB1
T3 sequence (P01137 279-390): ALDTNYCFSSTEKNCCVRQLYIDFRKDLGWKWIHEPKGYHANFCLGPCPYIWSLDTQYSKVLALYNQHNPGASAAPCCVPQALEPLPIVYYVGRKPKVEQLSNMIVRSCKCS

TGFβ2 (R&D Systems) [2] = target: T1, TGFβ2 (R&D Systems); assay: SPR full titration
TGFβ3 (R&D Systems) [3] = target: T2, TGFβ3 (R&D Systems); assay: SPR full titration
TGFβ1 (R&D Systems) [4] = target: T3, TGFβ1 (R&D Systems); assay: cell-based or functional assay
TGFβ2 (R&D Systems) [5] = target: T1, TGFβ2 (R&D Systems); assay: cell-based or functional assay
TGFβ3 (R&D Systems) [6] = target: T2, TGFβ3 (R&D Systems); assay: cell-based or functional assay

Row | Binder | Kd (TGFβ1 (R&D Systems) [1]) [nM] | Kd (TGFβ2 (R&D Systems) [2]) [nM] | Kd (TGFβ3 (R&D Systems) [3]) [nM] | pSmad-3, IC50 (TGFβ1 (R&D Systems) [4]) [nM] | pSmad-3, IC50 (TGFβ2 (R&D Systems) [5]) [nM] | pSmad-3, IC50 (TGFβ3 (R&D Systems) [6]) [nM]
1 | affinity matured HcLb 189 (antibody, V domains shown, full IgG; also called canHcLb/S55W/D100Y + canHcLb/237ND/242TS) VH: EVQLVQSGAEVKKPGASVKVSCKTSGYTFITYWMNWVRQAPGAGLDWMGQIFPAWGSTNYNEMFEGRVTLTADTSTSTAYMELSSLRAGDIAVYYCARGYGNYALDAMDYWGQGTLVTVSS VL: DIVMTQTPPSLSVSPRETASISCRASESVDSYGNSFMHWYLQKPGQSPQLLIYLASNLESGVSDRFSGSGSGTDFTLRISRVEANDTGVYYCQQNDEDPLSFGQGTK | 2.65 | 0.922 | 0.226 | 2.21 | 3.29 | 2.13
2 | affinity matured HcLb 73 (antibody, V domains shown) VH: EVQLVQSGAEVKKPGASVKVSCKTSGYTFITYWMNWVRQAPGAGLDWMGQIFPASGSTNYNEMFEGRVTLTADTSTSTAYMELSSLRAGDIAVYYCARGYGNYALDAMDYWGQGTLVTVSS VL: DIVMTQTPPSLSVSPRETASISCRASESVDSYGNSFMHWYLQKPGQSPQLLIYLASNLESGVSDRFSGSGSGTDFTLRISRVEANDTGVYYCQQNDEDPLTFGQGTK | – | – | – | 1.17 | 8.42 | 1.24
3 | affinity matured HcLb 187 (antibody, V domains shown) VH: EVQLVQSGAEVKKPGASVKVSCKTSGYTFITYWMNWVRQAPGAGLDWMGQIFPGSGSTNYNEMFEGRVTLTADTSTSTAYMELSSLRAGDIAVYYCARGYGNYALDAMDYWGQGTLVTVSS VL: DIVMTQTPPSLSVSPRETASISCRASESVDSYGNSFMHWYLQKPGQSPQLLIYLASNLESGVSDRFSGSGSGTDFTLRISRVEANDTGVYYCQQNNEDPLTFGQ | – | – | – | 0.82 | 2.08 | 8.61

Next, values leading:

Row | Kd (TGFβ1 (R&D Systems) [1]) [nM] | Kd (TGFβ2 (R&D Systems) [2]) [nM] | Kd (TGFβ3 (R&D Systems) [3]) [nM] | pSmad-3, IC50 (TGFβ1 (R&D Systems) [4]) [nM] | pSmad-3, IC50 (TGFβ2 (R&D Systems) [5]) [nM] | pSmad-3, IC50 (TGFβ3 (R&D Systems) [6]) [nM] | Binder
4 | – | – | – | 3.26 | 2.77 | 7.79 | affinity matured HcLb 190 (antibody, V domains shown) VH: EVQLVQSGAEVKKPGASVKVSCKTSGYTFITYWMNWVRQAPGAGLDWMGQIFPGSGSTNYNEMFEGRVTLTADTSTSTAYMELSSLRAGDIAVYYCARGYGNYALDAMDYWGQGTLVTVSS VL: DIVMTQTPPSLSVSPRETASISCRASESVDSYGNSFMHWYLQKPGQSPQLLIYLASNLESGVSDRFSGSGSGTDFTLRISRVEANDTGVYYCQQNDEDPLSFGQGTK
5 | – | – | – | 2.16 | 4.43 | 2.31 | affinity matured HcLb 91 (antibody, V domains shown) VH: EVQLVQSGAEVKKPGASVKVSCKTSGYTFITYWMNWVRQAPGAGLDWMGQIFPAWGSTNYNEMFEGRVTLTADTSTSTAYMELSSLRAGDIAVYYCARGDGNYALDAMDYWGQGTLVTVSS VL: DIVMTQTPPSLSVSPRETASISCRASESVDSYGNSFMHWYLQKPGQSPQLLIYLASNLESGVSDRFSGSGSGTDFTLRISRVEANDTGVYYCQQNNEDPLTFGQ
6 | – | – | – | 1.43 | 8.24 | 1.7 | affinity matured HcLb 27 (antibody, V domains shown) VH: EVQLVQSGAEVKKPGASVKVSCKTSGYTFITYWMNWVRQAPGAGLDWMGQIFPASGSTNYNEMFEGRVTLTADTSTSTAYMELSSLRAGDIAVYYCARGYGNYALDAMDYWGQGTLVTVSS VL: DIVMTQTPPSLSVSPRETASISCRASESVDSYGNSFMHWYLQKPGQSPQLLIYLASNLESGVSDRFSGSGSGTDFTLRISRVEANDTGVYYCQQNNEDPLTFGQ
7 | 2.58 | 3.91 | 0.676 | 0.78 | 1.71 | 1.44 | affinity matured HcLb 217 (antibody, V domains shown, full IgG; also called canHcLb/S55W/D100Y/I30/M + canHcLb/237ND/242TS) VH: EVQLVQSGAEVKKPGASVKVSCKTSGYTFMTYWMNWVRQAPGAGLDWMGQIFPAWGSTNYNEMFEGRVTLTADTSTSTAYMELSSLRAGDIAVYYCARGYGNYALDAMDYWGQGTLVTVSS VL: DIVMTQTPPSLSVSPRETASISCRASESVDSYGNSFMHWYLQKPGQSPQLLIYLASNLESGVSDRFSGSGSGTDFTLRISRVEANDTGVYYCQQNDEDPLSFGQGTK
